Numbering of substitutions follows the chain as printed. “And” between values parts separate entries of the source, which are not always exact repeats. Identical values can stand only once.

Assay [1] concerns the target T1, human CD40 (W109L, L121P) Fc fusion (human, UniProt P25942 21-193).
T1 construct: As m1 with W109L and L121P; also called hCD40-M4; not shown: human IgG1 Fc
Put plainly: SPR ProteOn XPR36, CD40-Fc captured, dAb analyte.

In assay [2] the target is T2, human CD40 (H76R, W109L, L121P) Fc fusion (human).
T2 construct: As m1 with H76R, W109L and L121P; also called hCD40-M5; not shown: human IgG1 Fc
T2 chain: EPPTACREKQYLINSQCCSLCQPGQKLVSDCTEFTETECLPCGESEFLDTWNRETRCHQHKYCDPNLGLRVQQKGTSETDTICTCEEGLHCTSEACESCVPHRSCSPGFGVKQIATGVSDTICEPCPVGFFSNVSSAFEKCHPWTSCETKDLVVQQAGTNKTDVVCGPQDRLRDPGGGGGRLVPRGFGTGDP
Put plainly: SPR ProteOn XPR36, CD40-Fc captured, dAb analyte.

For assay [3], the target named is T3, human CD40 (W109R) Fc fusion (Chimpanzee CD40) (human, UniProt P25942 21-193).
T3 construct: As m1 with W109R (residue of chimpanzee CD40); also called hCD40-M3; not shown: human IgG1 Fc
The assay can be described thus: SPR ProteOn XPR36, CD40-Fc captured, dAb analyte.

Assay [4] has as its target T4, wild type cynomolgus monkey CD40 Fc fusion (cynomolgus monkey; human).
T4 construct: also called wt-cyno-CD40; wt-cCD40; not shown: human IgG1 Fc
T4 chain: T2 chain with A95S, S106L, H142R, L172Q
The assay can be described thus: SPR ProteOn XPR36, CD40-Fc captured, dAb analyte.

Assay [5] concerns the target T5, wild type human CD40 Fc fusion (human, UniProt P25942 21-193).
T5 construct: also called wt-hCD40; not shown: human IgG1 Fc
Put plainly: SPR ProteOn XPR36, CD40-Fc captured, dAb analyte.

The target in assay [6] is T6, human CD40 (H76R) Fc fusion (human, UniProt P25942 21-193).
T6 construct: As m1 with H76R; also called hCD40-M1; not shown: human IgG1 Fc
The assay can be described thus: SPR ProteOn XPR36, CD40-Fc captured, dAb analyte.

The target of assay [7] is T7, human CD40 (W109L) Fc fusion (human, UniProt P25942 21-193).
T7 construct: As m1 with W109L; also called hCD40-M2; not shown: human IgG1 Fc
The assay can be described thus: SPR ProteOn XPR36, CD40-Fc captured, dAb analyte.

The target in assay [8] is T8, marmoset CD40 on blood lymphocytes (marmoset, UniProt Q3LRP1 21-274).
T8 construct: whole, on cells
Put plainly: flow cytometry on whole blood, anti-PEG detection, all lymphocytes by scatter.
Method: (§1) 100 μl from each blood sample was aliquoted to 12×75 mm tubes and washed 3 times with FACS buffer (0.5% FBS/PBS/0.1% sodium azide). Tubes were centrifuged for 5 minutes at 1500 rpm, and supernatants were decanted between washes. Following the washes, tubes were placed on ice and incubated with human IgG for 5 minutes to block non-specific binding via Fc receptors.
(§2) Samples were washed once in FACS buffer, then incubated with an APC-labeled CD20 antibody (clone 2H7, BD Biosciences) and PE labeled-anti-mouse IgG (Fcγ1 specific; Calbiochem) for an additional 30 minutes on ice.
(§3) To lyse red blood cells and fix white blood cells following detection antibody incubation, FACS Lysing Solution (BD Biosciences) was added to all tubes, and samples were incubated for 15 minutes at room temperature. Samples were centrifuged and resuspended in FACS Lysing Solution, and analyzed by flow cytometry on a BD FACSCanto™, gating on CD20+ B cells for analysis. For marmoset samples, the CD20 antibody was not cross reactive; therefore analysis was performed on all lymphocytes as identified by forward and side scatter properties (size).

The target of assay [9] is T9, rhesus macaque CD40 on CD20+ B cells in blood (rhesus macaque, UniProt F6SNI1 21-278).
T9 construct: whole, on cells; also called rhesus CD40
Put plainly: flow cytometry on whole blood, anti-PEG detection, gate on CD20+ B cells. On the technique in general: A flow cytometer gives signals particle by particle.
Method: as §1, §2, §3

Assay [10] has as its target T10, cynomolgus monkey CD40 on CD20+ B cells in blood (Macaca fascicularis (cynomolgus monkey), UniProt P25942 21-277 (human entry)).
T10 construct: also called cynoCD40
T10 chain: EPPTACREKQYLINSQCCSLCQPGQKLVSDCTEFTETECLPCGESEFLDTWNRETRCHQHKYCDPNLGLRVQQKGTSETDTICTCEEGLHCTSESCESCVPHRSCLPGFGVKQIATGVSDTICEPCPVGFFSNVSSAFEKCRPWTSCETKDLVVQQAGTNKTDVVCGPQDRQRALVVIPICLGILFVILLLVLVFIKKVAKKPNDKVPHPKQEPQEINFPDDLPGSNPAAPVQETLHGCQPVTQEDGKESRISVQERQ
Described as above.
Method: as §1, §2, §3

In assay [11] the target is human CD40 on primary human cells (blood CD20+ B cells, tonsillar B cells, monocyte-derived dendritic cells) (human, UniProt P25942 21-277). Put plainly: flow cytometry on human whole blood, PE-streptavidin detection, gate on CD20+ B cells.
Method: as §1
(§4) For biotin-conjugated dAb detection, PE-labeled streptavidin (Invitrogen) and APC-labeled CD20 antibody (clone 2H7, BD Biosciences) were added to tubes and incubated 30 minutes at room temperature.
as §3
The target in assay [12] is T9, rhesus macaque CD40 on CD20+ B cells in …. Put plainly: flow cytometry on whole blood, PE-streptavidin detection, gate on CD20+ B cells.
Method: as §1, §4, §3
Assay [13] deals with T10, cynomolgus monkey CD40 on CD20+ B cells …. The assay is described as above.
Method: as §1, §4, §3
Assay [14] deals with T8, marmoset CD40 on blood lymphocytes. The assay can be described thus: flow cytometry on whole blood, PE-streptavidin detection, all lymphocytes by scatter.
Method: as §1, §4, §3
Assay [15] addresses T11, wild type human CD40 Fc fusion (human, UniProt P25942 21-193).
T11 construct: also called wt-hCD40; not shown: human IgG1 Fc
The assay can be described thus: SPR, ProteOn XPR36; CD40-Fc captured, dAb analyte; 1:1 fit;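 note: CD40-Fc captured on anti-human IgG(Fc) surface of a GLC chip, buffer pH 7.1, sensorgrams double-referenced against surfaces without CD40-Fc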; repeat.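 Note: CD40-Fc held on a GLC chip by an immobilized anti-human IgG(Fc) antibody, sensorgrams double-referenced against CD40-free surfaces, running buffer sodium phosphate with NaCl and Tween 20 at pH 7.1.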 For orientation: Surface plasmon resonance follows binding to a sensor surface in real time, without labels.

Assay [16] deals with T12, human CD40 (W109L) Fc fusion (human, UniProt P25942 21-193).
T12 construct: Same construct as wt-hCD40 with W109L; also called hCD40-M2; hCD40 M2 (W109L); not shown: human IgG1 Fc
Put plainly: SPR, ProteOn XPR36; CD40-Fc captured, dAb analyte.

In assay [17] the target is T13, wild type cynomolgus monkey CD40 Fc fusion (cynomolgus monkey (Macaca …)).
T13 construct: also called wt-cCD40; wt-cyno-CD40; not shown: human IgG1 Fc
T13 chain: T2 chain with A95S, S106L, H142R, L172Q
Put plainly: SPR, ProteOn XPR36; CD40-Fc captured, dAb analyte.

The target of assay [18] is T14, human CD40 (H76R, W109L, L121P) Fc fusion (human).
T14 construct: Same construct as wt-hCD40 with H76R, W109L and L121P; also called hCD40-M5; hCD40-M5 (H76R, W109L, L121P); not shown: human IgG1 Fc
T14 chain: T2 chain
Put plainly: SPR, ProteOn XPR36; CD40-Fc captured, dAb analyte.

Assay [19] concerns the target T15, human CD40 (W109R) Fc fusion (Chimpanzee CD40) (human, UniProt P25942 21-193).
T15 construct: Same construct as wt-hCD40 with W109R (the residue of chimpanzee CD40); also called hCD40-M3; hCD40 M3 (W109R); not shown: human IgG1 Fc
Put plainly: SPR, ProteOn XPR36; CD40-Fc captured, dAb analyte.

Assay [20] has as its target T16, human CD40 (W109L, L121P) Fc fusion (human, UniProt P25942 21-193).
T16 construct: Same construct as wt-hCD40 with W109L and L121P; also called hCD40-M4; hCD40 M4 (W109L, L121P); not shown: human IgG1 Fc
Put plainly: SPR, ProteOn XPR36; CD40-Fc captured, dAb analyte.

Assay [21] addresses T11, wild type human CD40 Fc fusion. Put plainly: SPR, ProteOn XPR36; CD40-Fc captured, dAb analyte; 1:1 fit.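 Note: CD40-Fc captured on anti-human IgG(Fc) surface of a GLC chip, buffer pH 7.1, sensorgrams double-referenced against surfaces without CD40-Fc.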
Method: (§5) Assays were performed on a BioRad ProteOn XPR36 SPR instrument. The SPR surfaces were prepared by immobilizing 8 μg/ml anti-human IgG(Fc) antibody (Biacore/GE Healthcare) in 10 mM sodium acetate pH 4.5 on a BioRad GLC sensor chip using standard ethyl(dimethylaminopropyl) carbodiimide (EDC)/N-hydroxysuccinimide (NHS) chemistry, with ethanolamine blocking. The running buffer for immobilization and kinetic binding analysis was 10 mM sodium phosphate, 130 mM sodium chloride, 0.05% tween 20, pH 7.1. CD40-Fc fusion proteins at concentrations of 20 μg/ml were captured in the vertical orientation on these surfaces via the Fc tail, and reference surfaces lacking CD40-Fc proteins were used for reference subtraction. […] The surfaces were regenerated in both horizontal and vertical orientations with 30 s pulses of 3 M MgCl₂ followed by running buffer at 60 μl/min. Sensogram data was double-referenced and then fitted to a 1:1 Langmuir model using BioRad ProteOn Manager V.2.1.0.38 software, to determine the association rate constant (ka), the dissociation rate constant (kd), and the equilibrium dissociation constant (KD).
For assay [22], the target named is T17, human CD40 (H76R) Fc fusion (human, UniProt P25942 21-193).
T17 construct: also called hCD40-M1; hCD40 M1 (H76R); not shown: human IgG1 Fc
The assay is described as above.

Assay [23] addresses T1, human CD40 (W109L, L121P) Fc fusion. Put plainly: SPR ProteOn XPR36.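 Note: surface plasmon resonance with CD40-Fc fusions captured through their Fc on an anti-human IgG chip, sensorgrams reference-subtracted against surfaces lacking CD40-Fc.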
Method: as §5
The target in assay [24] is T2, human CD40 (H76R, W109L, L121P) Fc …. The assay can be described thus: SPR ProteOn XPR36.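 Note: surface plasmon resonance with CD40-Fc fusions captured through their Fc on an anti-human IgG chip, sensorgrams reference-subtracted against surfaces lacking CD40-Fc.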
Method: as §5
Assay [25] deals with T3, human CD40 (W109R) Fc fusion …. Put plainly: SPR ProteOn XPR36.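 Note: surface plasmon resonance with CD40-Fc fusions captured through their Fc on an anti-human IgG chip, sensorgrams reference-subtracted against surfaces lacking CD40-Fc.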
Method: as §5
Assay [26] deals with T4, wild type cynomolgus monkey CD40 Fc …. The assay can be described thus: SPR ProteOn XPR36.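 Note: surface plasmon resonance with CD40-Fc fusions captured through their Fc on an anti-human IgG chip, sensorgrams reference-subtracted against surfaces lacking CD40-Fc.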
Method: as §5
Assay [27] addresses T7, human CD40 (W109L) Fc fusion. Put plainly: SPR ProteOn XPR36.
Method: as §5

B1: BMS3h-217-16 (other)
VL: DIQMTQSPSSLSASVGDRVTITCRASHFIGTLLSWYQQKPRKAPKLLITYGSLLQSGVPSRFSGSGSGTDFTLTISSLQPEDFATYYCGQGVLWPPTFGQGTKVEIKR
notes: domain antibody (dAb), single VK domain
For the molecule B1, the dissociation constant Kd is 0.35 nM in assay [1]; 0.5 nM in assay [2]; 0.27 nM in [3]; 0.4 nM in assay [4]; 0.22 nM and 0.26 nM in assay [5]; 0.35 nM in [6]. The molecule further had a Kd in [7] of 0.41 nM.

B2: BMS3h-217-23 (other)
VL: B1 VL with T31S, Q38V, R41G, P96A, K103T
notes: as for B1
With B2, the Kd in assay [1] was 1.6 nM; in [2], 2.2 nM; in assay [3] it was 1.2 nM; in [4] it was 1.9 nM; in assay [5], 0.78 nM and 1.5 nM; in assay [6], 1.6 nM. The molecule further had a dissociation constant (Kd) in [7] of 2 nM.

B3: BMS3h-217-5 (other)
VL: B1 VL with S10F, G30A, R41G
notes: as for B1
As to B3, the dissociation constant (Kd) is 0.93 nM in assay [1]; 1 nM in assay [2]; 0.72 nM in assay [3]; 0.9 nM in assay [4]; 0.47 nM and 0.48 nM in assay [5]; 0.94 nM in [6]. In addition, binding in assay [7] was put at a Kd of 0.99 nM.

B4: BMS3h-56-5C-40L (other)
VH: EVQLLESGGGLVQPGGSLRLSCAASGFTFRDYEMWWVRQAPGKGLERVSAINPQGTRTYYADSVMGRFTISRDNSKNTLYLQMNSLRAEDTAVYYCAKLPFTFDDWGQGTLVTVSS
modifications: PEGylated; attachment residue not stated
notes: PEGylated form of dAb BMS3h-56-5; also called PEGylated anti-human CD40 dAb
On to B4, for which the binding result in assay [8], in assay [9] and in [10] was “no binding” throughout.

B5: BMS3h38-2-biotin (other)
VH: EVQLLASGGGLVQPGGSLRLSCAASGFTFEEEEMIWVRQAPGKGLEWVSAISGSGGSTYYADSVKGRFTISRDNSKNTLYLQMNSLRAEDTAVYYCGKEPFRYDYWGQGTLVTVSS
modifications: biotin-conjugated; site not stated
notes: Biotin conjugate of dAb BMS3h-38-2; also called biotin-conjugated dAb
As to B5, the binding result in assay [11] is reported as “binds”; in [12] it was “no binding”; in assay [13] it was “no binding”; in assay [14] it was “no binding”.

B6: BMS3h-38-2 (other)
VH: B5 VH
notes: Anti-human CD40 domain antibody (dAb), single VH domain
B6: the Kd in assay [15] was 8.04 nM; in assay [21], 5.07 nM; in assay [22], 7.15 nM. The values for the koff in assay [15], in assay [21] and in [22] were 0.00114 s⁻¹, 0.000608 s⁻¹ and 0.001 s⁻¹, respectively. Further, the association rate constant (kon) in [15] turned out to be 142000 M⁻¹ s⁻¹; in assay [21], 120000 M⁻¹ s⁻¹; in [22] it was 140000 M⁻¹ s⁻¹. Moreover, the binding result in [16], in [17], in [18], in [19] and in [20] was “no binding (tested: dAb tested up to 405 nM)” each time.

B7: BMS3h38-2C-P40Br (other)
VH: B5 VH
modifications: PEGylated; attachment residue not stated
notes: PEGylated form of dAb BMS3h-38-2; also called PEGylated anti-human CD40 dAb
Regarding B7, the binding result in [8], in assay [9] and in [10] was “no binding” throughout.

B8: BMS3h-38-2 (other)
VH: B5 VH
notes: domain antibody (dAb), single VH domain
As to B8, the binding result in assay [23], in assay [24], in assay [25], in [26] and in assay [27] was “no binding (tested: 405 nM)” in each case. For the same molecule, the dissociation constant (Kd) was 5.1 nM and 8 nM in assay [5]; 7.2 nM in [6].

What is called Kd is a measure of binding affinity in units of concentration. As usually defined, the koff is the rate constant with which the complex falls apart. A word on the kon: it is the rate constant with which the complex forms.

These data come from patent US20200199244A1 (published 2020).
